Patent US20260242478A1 (published 2026)
Where no end group is shown, it is not given here.

B1: Phage-265 (peptide)
peptide: MDWCPRFMWDLCFA
modifications: cysteine pairing not given here; also: displayed on phage as pIII fusion, fusion limits and linker not given here
notes: Clonal phage of the Peptide-9 library, tested as crude phage supernatant; not shown: pIII of the bacteriophage
B2: Phage-278 (peptide)
peptide: MDWCPRSIWYLCFN
modifications: cysteine pairing not given here; also: displayed on phage as fusion to pIII, fusion limits and linker not given here
notes: as for B1

Key:
[1] = target: T1, Anti-CD28 scFv (VH - linker 1 - VL) (biotinylated (site not stated)); test: phage ELISA; biotinylated anti-CD28 scFv on neutravidin plate, wells pre-incubated with soluble CD28 (competitor), anti-M13-HRP detection;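 note: bound clonal phage detected by peroxidase-labelled anti-M13 antibody, compared against wells given blocking buffer alone without soluble CD28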
T1 construct: Biotinylated scFv captured on neutravidin coated plates in the panning ELISA
T1 sequence (scFv, as listed by the source): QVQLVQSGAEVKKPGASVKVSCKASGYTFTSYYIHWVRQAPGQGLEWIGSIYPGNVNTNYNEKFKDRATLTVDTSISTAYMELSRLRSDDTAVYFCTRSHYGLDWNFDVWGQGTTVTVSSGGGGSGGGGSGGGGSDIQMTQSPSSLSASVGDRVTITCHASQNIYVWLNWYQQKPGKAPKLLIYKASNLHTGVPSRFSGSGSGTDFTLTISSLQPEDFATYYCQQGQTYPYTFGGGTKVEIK

[2] = target: T1, Anti-CD28 scFv (VH - linker 1 - VL); test: phage ELISA; biotinylated anti-CD28 scFv on neutravidin plate, clonal phage supernatant, anti-M13-HRP detection;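 note: before phage addition, wells were pretreated with soluble CD28 protein in blocking buffer, or with blocking buffer only as the comparison, then phage were added without washing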
[3] = target: T2, Anti-CD28 scFv (VH - linker 1 - VL) (biotinylated (site not stated)); test: phage ELISA as above, wells pre-incubated with soluble CD28 (competitor);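 note: ELISA of crude clonal phage supernatants added to wells pre-treated with soluble CD28 in blocking buffer, bound phage read out with HRP-conjugated anti-M13 antibody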
T2 construct: Captured as biotinylated scFv on neutravidin plates in the panning ELISA
T2 sequence (scFv, as listed by the source): as above

[4] = target: T2, Anti-CD28 scFv (VH - linker 1 - VL); test: phage ELISA: biotinylated anti-CD28 scFv on neutravidin plate, clonal phage supernatant, anti-M13-HRP detection;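 note: competition format: before phage supernatant was added, wells were preincubated with soluble CD28 protein or with blocking buffer only, and phage were added without an intervening wash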
Description: (§1) Clonal phage were harvested as crude supernatants and screened via standard enzyme linked immunosorbent assays (ELISAs). […] Prior to the addition of clonal phage, wells were incubated with blocking buffer and CD28 soluble protein or blocking buffer alone. Without washing or aspirating, clonal phage supernatants were then added to the wells and incubated for a short time. Wells were then washed followed by detection of bound phage using a horse radish peroxidase conjugated anti-M13 antibody.

[5] = target: Anti-CD28 scFv (VH - linker 1 - VL) (biotinylated (site not given)); test: phage binding ELISA on anti-CD28 scFv plate; wells pre-incubated with soluble CD28 as competitor;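 note: clonal phage supernatants tested, bound phage read out with an HRP-linked anti-M13 antibody, reference wells received blocking buffer lacking CD28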
Chain of Anti-CD28 scFv (VH - linker 1 - VL) (biotinylated (site not given)) (scFv, as listed by the source): as above

[6] = target: T3, anti-CD28 scFv (VH - linker 1 - VL) (biotinylated (site not stated)); test: phage ELISA as above, wells pre-incubated with soluble CD28 as competitor
T3 sequence (scFv, as listed by the source): as above

[7] = target: T3, anti-CD28 scFv (VH - linker 1 - VL); test: phage ELISA; biotinylated anti-CD28 scFv on neutravidin plate, clonal phage supernatant, anti-M13 HRP detection;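 note: before phage addition, wells were pre-incubated with blocking buffer plus soluble CD28 protein, or blocking buffer only, with no wash in between, signal reflects phage remaining bound after washing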
Description: as §1

[8] = target: T4, Anti-CD28 scFv (VH - linker 1 - VL) (biotinylated (site not stated)); test: phage ELISA as above, wells pre-incubated with soluble CD28 (competitor);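 note: ELISA of crude clonal phage supernatants added to wells pre-treated with soluble CD28 in blocking buffer, bound phage read out with HRP-conjugated anti-M13 antibody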
T4 construct: Biotinylated scFv captured on neutravidin coated plates in the panning ELISA
T4 sequence (scFv, as listed by the source): as above

Row | Binder | CD28 scFv signal in presence of CD28 [3] | CD28 scFv signal [4] | other results
1 | MDWCPRDLWAMCFA (cysteine pairing not given here; also: displayed on phage as fusion to pIII, tested as crude phage supernatant) [Phage-285] | – | – | CD28 scFv signal in presence of CD28 [1]: 0.889; CD28 scFv signal [2]: 2.63
2 | MSWCPWDMWNECFA [Phage-403] | 0.108 | 1.52 | –
3 | B1 | – | – | CD28 scFv signal in presence of CD28 [5]: 0.725
4 | TDWCPRDMWYLCFN [Phage-396] | 0.301 | 2.11 | –
5 | MDWCPRYMWYQCFS [Phage-196] | – | – | CD28 scFv signal in presence of CD28 [6]: 0.357; CD28 scFv signal [7]: 2.36
6 | MERCPRYLWHMCYS (tested as crude phage supernatant) [Phage-286] | – | – | CD28 scFv signal in presence of CD28 [1]: 0.84; CD28 scFv signal [2]: 2.59
7 | MDWCPMYMWHKCFH [Phage-415] | 0.168 | 0.987 | –
8 | MDWCPRSLWFLCFN (tested as crude phage supernatant) [Phage-281] | – | – | CD28 scFv signal in presence of CD28 [1]: 1.77; CD28 scFv signal [2]: 2.71
9 | MNWCPIHMWNQCFA [Phage-407] | 0.133 | 1.37 | –
10 | MDWCPSDMWANCFF [Phage-389] | – | – | CD28 scFv signal in presence of CD28 [8]: 0.316
11 | IDWCPRYMWHECFF [Phage-410] | 0.164 | 1.18 | –
12 | MDWCPRNMWNECFF [Phage-398] | 0.43 | 2.1 | –
13 | MDWCPMDMWVNCFN [Phage-193] | – | – | CD28 scFv signal in presence of CD28 [6]: 0.277; CD28 scFv signal [7]: 2.52
14 | MDWCPRDMWTSCFN [Phage-404] | 0.179 | 1.41 | –
15 | LHWCPITMWTYCYY [Phage-409] | 0.516 | 1.21 | –
16 | LYWCPRDMWAYCYS [Phage-414] | 0.157 | 1.02 | –
17 | DVWCPKYMWSLCFN [Phage-192] | – | – | CD28 scFv signal in presence of CD28 [6]: 0.418; CD28 scFv signal [7]: 2.53
18 | MHWCPTYMWSECFA [Phage-400] | 0.161 | 1.84 | –
19 | MDWCPRYMWSDCFF [Phage-394] | 0.377 | 2.28 | –
20 | MSWCPRFMWHECFN [Phage-411] | 0.246 | 1.11 | –
21 | MDWCPRHMWHECFH [Phage-402] | 0.171 | 1.81 | –
22 | B2 | – | – | CD28 scFv signal in presence of CD28 [5]: 1.34

Row | Binder | CD28 scFv signal in presence of CD28 [3] | CD28 scFv signal [4] | other results
23 | MDWCPKHMWFMCFN [Phage-195] | – | – | CD28 scFv signal in presence of CD28 [6]: 0.372; CD28 scFv signal [7]: 2.4
24 | MDWCPMSMWAFCFD [Phage-405] | 0.16 | 1.41 | –
25 | MDWCPRDMWFECFN [Phage-393] | 0.778 | 2.42 | –
26 | MDWCPRYLWDYCFA (tested as crude phage supernatant) [Phage-280] | – | – | CD28 scFv signal in presence of CD28 [1]: 0.382; CD28 scFv signal [2]: 2.71
27 | MDWCPRSLWDYCFA (tested as crude phage supernatant) [Phage-294] | – | – | CD28 scFv signal in presence of CD28 [1]: 0.235; CD28 scFv signal [2]: 2.49
28 | MDWCPRAMWDYCFY [Phage-397] | 0.339 | 2.11 | –
29 | MNWCPIDMWTECFN [Phage-406] | 0.175 | 1.4 | –
30 | QHWCPRDMWNDCYA [Phage-412] | 0.149 | 1.08 | –
31 | MDWCPLDMWVLCFA [Phage-401] | 0.169 | 1.84 | –
32 | MDWCPRSMWDSCFN [Phage-399] | 0.142 | 2.02 | –
33 | MDWCPSDMWSNCFN [Phage-413] | 0.121 | 1.07 | –
34 | MDWCPSDMWHECYA [Phage-194] | – | – | CD28 scFv signal in presence of CD28 [6]: 0.2; CD28 scFv signal [7]: 2.47
35 | MDWCPKDMWAECFN [Phage-395] | 0.457 | 2.11 | –
36 | MDWCPIALWDFCFA (tested as crude phage supernatant) [Phage-288] | – | – | CD28 scFv signal in presence of CD28 [1]: 0.492; CD28 scFv signal [2]: 2.52
37 | MDWCPRDLWFACFA (tested as crude phage supernatant) [Phage-282] | – | – | CD28 scFv signal in presence of CD28 [1]: 0.794; CD28 scFv signal [2]: 2.66
38 | MFWCPKDMWAECFA [Phage-408] | 0.113 | 1.26 | –
39 | MDWCPRHLWNECFN (tested as crude phage supernatant) [Phage-283] | – | – | CD28 scFv signal in presence of CD28 [1]: 0.393; CD28 scFv signal [2]: 2.65
40 | MDWCPRHLWFECFN (tested as crude phage supernatant) [Phage-293] | – | – | CD28 scFv signal in presence of CD28 [1]: 0.171; CD28 scFv signal [2]: 2.49
41 | MDWCPRHLWFECFF (tested as crude phage supernatant) [Phage-300] | – | – | CD28 scFv signal in presence of CD28 [1]: 0.479; CD28 scFv signal [2]: 2.45
42 | MDWCPRHLWNECFA (tested as crude phage supernatant) [Phage-306] | – | – | CD28 scFv signal in presence of CD28 [1]: 0.17; CD28 scFv signal [2]: 2.39
43 | MDWCPFDMWADCFF [Phage-391] | 0.215 | 2.53 | –
